The results in this text go back to PMC5346706, “Anti-metastatic effect of the TM4SF5-specific peptide vaccine and humanized monoclonal antibody on colon cancer in a mouse lung metastasis model” (Oncotarget, 2016).

Test [1] deals with cyclic peptide hTM4SF5EC2-C (human). Put plainly: SPR; biotinylated peptide immobilized on a streptavidin chip, increasing amounts of antibody applied; SR7500DC Reichert SPR system.
The target of test [2] is T1, Myc-tagged recombinant human TM4SF5 protein (Homo sapiens (Huh-7 cDNA), UniProt O14894).
T1 construct: human transmembrane 4 superfamily member 5 protein (TM4SF5); cDNA amplified from Huh-7 mRNA with the printed primers (5' primer holds the ATG); also called Myc-tagged hTM4SF5; hTM4SF5
Put plainly: western blotting; whole cell lysates of HEK 293F-EV and HEK 293F-TM4SF5 cells resolved on SDS-PAGE and probed with the antibody. Particulars: one partner purified. Background: A western blot detects proteins with antibodies after separation by electrophoresis.

T1 sequence (O14894 whole entry): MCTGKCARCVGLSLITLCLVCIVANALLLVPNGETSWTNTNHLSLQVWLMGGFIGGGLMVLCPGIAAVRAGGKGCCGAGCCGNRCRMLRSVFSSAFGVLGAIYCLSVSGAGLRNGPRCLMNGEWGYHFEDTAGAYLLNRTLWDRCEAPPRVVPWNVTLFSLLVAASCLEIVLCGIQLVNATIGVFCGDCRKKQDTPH

B1: mouse anti-TM4SF5 monoclonal antibody mEC2-C (antibody, V domains shown)
VH: QVQLEESGPGLVAPSQSLSIICTVSGFSLTSYGVTWVRQPPGKGLEWLGVIWSDGSTNYQSALISRLTISRDNSKSQAFLKLNSLQTDDTATYYCARPSNYYYFDYWGQGTTLTVSS
VL: DIVMTQSPSSLAVSAGERVTLSCKSSQSLFDRRTRKTYLAWYQQKPGQSPKLLISWASTRESGVPDRFTGSGSGTDFTLTISSVQAEDLAVYYCKQSYNLFTFGGGTKLEIK
notes: VH of mEC2-C (mouse VH2 subtype); mouse IgG3 heavy chain constant region; VL of mEC2-C (mouse Vk8 subtype); mouse kappa light chain constant region (cloned with kappa chain primers); Mouse IgG3, kappa; also called mEC2-2; source: hybridoma, purified from ascitic fluid (Protein A column)
What is called Kd is a measure of binding affinity in units of concentration. What is called koff is the rate constant with which the complex falls apart. A high value points to fast dissociation. In test [1], B1 came in with a Kd of less than 0.48 nM and a koff of less than 1e-05 s⁻¹. Besides, the binding result in test [2] is reported as “binds”.
